B1: L-ANAC046_(319-338) peptide (peptide, UniProt Q9SQQ6 319-338, looked up)
peptide: SKSACDGLDDLIFWEDLYTS
B2: L-DREB2A_(255-272) peptide (peptide, UniProt O82132 255-272, looked up)
peptide: SSDMFDVDELLRDLNGDD
B3: L-ANAC013_(254-274) peptide (peptide, UniProt F4IED2 254-274, looked up)
peptide: NLEEDMYLEINDLMEPEPEPT

What was measured:
[1] = molecular target: RCD1-SRO-TAF4 (RST) domain from Radical-Induced Cell Death1, RCD1-RST_(499-572) (UniProt Q8RY59); assay: ITC
[2] = molecular target: T1, RCD1-SRO-TAF4 (RST) domain from Radical-Induced Cell Death1, RCD1-RST_(499-572) (UniProt Q8RY59 499-572); assay: ITC
T1 sequence (looked up): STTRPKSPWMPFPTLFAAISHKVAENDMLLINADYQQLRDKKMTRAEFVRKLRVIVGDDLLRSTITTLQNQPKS

Molecule	binding result [2]	also measured
D-ANAC013_(254-274) peptide, D-enantiomer (from UniProt F4IED2 254-274)	–	fold difference in Kd against L-ANAC013 [1]: 500 fold
D-ANAC046_(319-338) peptide, D-enantiomer (from UniProt Q9SQQ6 319-338)	–	fold difference in Kd against L-ANAC046 [1]: 15 fold
D-DREB2A_(255-272) peptide, D-enantiomer (from UniProt O82132 255-272)	–	fold difference in Kd against L-DREB2A [1]: 72 fold
B1	binds	–
B2	binds	–
B3	binds	–

Reference: doi:10.1101/2024.02.23.581681 (bioRxiv, 2024)
